Assay results as given in patent US20250196025A1.

Assays:
IgG (Gammanorm) [1] = test: SPR (Biacore), variant amine-coupled to CM5 chip, Gammanorm as analyte, 1:1 kinetic fit
IgG (Gammanorm) [2] = test: SPR (Biacore), variant amine-coupled to CM5 chip, Gammanorm as analyte, steady state affinity fit

Row | Binder | Kd (IgG (Gammanorm) [1]) | Kd (IgG (Gammanorm) [2])
1 | Protein L variant pAM251 (domain B2-2; H10, H45, Y60) (protein) PKEEVTIKAHLIYADGKTQTAEFKGTFEEAAAEAYRYADALKKDHGEYTVDVADKGYTLYIKFAGKEKTPEE | 20 nM | 55 nM
2 | Protein L variant pAM237 (domain B2-1; H10, H45, Q60) (protein) PKEEVTIKAHLIYADGKTQTAEFKGTFEEAAAEAYRYADALKKDHGEYTVDVADKGYTLQIKFAGKEKTPEE | 27 nM | 72 nM
3 | Protein L variant pAM252 (domain B3-2; H10, H45, Y60) (protein) PKEEVTIKAHLIYADGKTQTAEFKGTFEEATAEAYRYADLLAKEHGKYTVDVADKGYTLYIKFAGKEKTPEE | 16 nM | 69 nM
4 | Protein L variant pAM238 (domain B3-1; H10, H45, Q60) (protein) PKEEVTIKAHLIYADGKTQTAEFKGTFEEATAEAYRYADLLAKEHGKYTVDVADKGYTLQIKFAGKEKTPEE | 25 nM | 82 nM
5 | Protein L variant pAM249 (domain B1-2; H10, H45, Y60) (protein) SEEEVTIKAHLIFANGSTQTAEFKGTFEKATSEAYAYADTLKKDHGEYTVDVADKGYTLYIKFAGKEKTPEE | 29 nM | 79 nM
6 | Protein L variant pAM235 (domain B1-1; H10, H45, Q60) (protein) SEEEVTIKAHLIFANGSTQTAEFKGTFEKATSEAYAYADTLKKDHGEYTVDVADKGYTLQIKFAGKEKTPEE | 42 nM | 101 nM
7 | Protein L variant pAM247 (domain C4-1; H10, H45, Q60) (protein) PKEEVTIKVHLIFADGKTQTAEFKGTFEEATAEAYRYADLLAKVHGEYTADLEDGGYTIQIKFAGKEQPGENPG | 9 nM | 38 nM
8 | Protein L variant pAM244 (domain C2b-1; H10, H45, Q60) (protein) PKEEVTIKVHLIFADGKTQTAEFKGTFEEATAKAYAYADLLAKEHGEYTADLEDGGYTIQIKFAGKETPETPEE | 18 nM | 50 nM
9 | Protein L variant pAM261 (domain C4-2; H10, H45, Y60) (protein) PKEEVTIKVHLIFADGKTQTAEFKGTFEEATAEAYRYADLLAKVHGEYTADLEDGGYTIYIKFAGKEQPGENPG | 12 nM | 43 nM
10 | Protein L variant pAM246 (domain C3b-1; H10, H45, Q60) (protein) PKEEVTIKVHLIFADGKIQTAEFKGTFEEATAKAYAYADLLAKEHGEYTADLEDGGYTIQIKFAGKETPETPEE | 17 nM | 49 nM
11 | Protein L variant pAM259 (domain C3-2; H10, H45, Y60) (protein) PKEEVTIKVHLIFADGKIQTAEFKGTFEEATAKAYAYANLLAKEHGEYTADLEDGGNTIYIKFAGKETPETPEE | 55 nM | 120 nM
12 | Protein L variant pAM260 (domain C3b-2; H10, H45, Y60) (protein) PKEEVTIKVHLIFADGKIQTAEFKGTFEEATAKAYAYADLLAKEHGEYTADLEDGGYTIYIKFAGKETPETPEE | 18 nM | 51 nM
13 | Protein L variant pAM243 (domain C2-1; H10, H45, Q60) (protein) PKEEVTIKVHLIFADGKTQTAEFKGTFEEATAKAYAYADLLAKEHGEYTADLEDGGNTIQIKFAGKETPETPEE | 39 nM | 83 nM
14 | Protein L variant pAM258 (domain C2b-2; H10, H45, Y60) (protein) PKEEVTIKVHLIFADGKTQTAEFKGTFEEATAKAYAYADLLAKEHGEYTADLEDGGYTIYIKFAGKETPETPEE | 17 nM | 45 nM
15 | Protein L variant pAM245 (domain C3-1; H10, H45, Q60) (protein) PKEEVTIKVHLIFADGKIQTAEFKGTFEEATAKAYAYANLLAKEHGEYTADLEDGGNTIQIKFAGKETPETPEE | 65 nM | 134 nM
16 | Protein L variant pAM257 (domain C2-2; H10, H45, Y60) (protein) PKEEVTIKVHLIFADGKTQTAEFKGTFEEATAKAYAYADLLAKEHGEYTADLEDGGNTIYIKFAGKETPETPEE | 47 nM | 98 nM
17 | Protein L variant pAM253 (domain B4-2; H10, H45, Y60) (protein) PKEEVTIKAHLIYADGKTQTAEFKGTFAEATAEAYRYADLLAKEHGKYTADLEDGGYTIYIRFAGKKVDEKPEE | 14 nM | 54 nM
18 | Protein L variant pAM239 (domain B4-1; H10, H45, Q60) (protein) PKEEVTIKAHLIYADGKTQTAEFKGTFAEATAEAYRYADLLAKEHGKYTADLEDGGYTIQIRFAGKKVDEKPEE | 17 nM | 60 nM
19 | Protein L variant pAM262 (domain D1-2; H10, H45, Y60) (protein) PKEEVTIKAHLIFADGKTQTAEFKGTFEEATAEAYRYADLLAKVHGEYTADLEDGGYTIYIKFAGKEQPGEN | 11 nM | 48 nM
20 | Protein L variant pAM248 (domain D1-1; H10, H45, Q60) (protein) PKEEVTIKAHLIFADGKTQTAEFKGTFEEATAEAYRYADLLAKVHGEYTADLEDGGYTIQIKFAGKEQPGEN | 16 nM | 56 nM
